This is an account of results in the RNAGym collection of RNA variant scans (doi:10.7554/elife.80360).

Sequences and labels used below:
B1: HDV Ribozyme (parent)
chain: GGCCGGCAUGGUCCCAGCCUCCUCGCUGGCGCCGGCUGGGCAACAUUCCGAGGGGACCGUCCCCUCGGUAAUGGCGAAUGGGACCCA

In this data set the parent is B1. In words: self-cleavage, relative activity (ratio to wild type); higher = more cleavage; co-transcriptional.
Take G25A G34U: the self-cleavage is 0.0702.
Regarding G25A G67U, the self-cleavage was determined as 0.401.
For the variant G25C G40A, the self-cleavage amounted to 0.0386.
With G25U G67U the figure was 0.305.
On to G25C C44U, for which the self-cleavage is 0.259.
In the case of G25C G74C, the self-cleavage turned out to be 0.
As for G25C G74A, the figure is 0.0639; as for G25U A45G, 0.401; as for G25U A45C, 0.0831.
As for G25U G53U, the figure is 0.145; as for G25C U79C, 0.0923; as for G25C U79G, 0.0594.
Regarding G25C U79A, the self-cleavage came out at 0.0615.
With G25C G59U the figure was 0.116; with G25C G59C, 0.131; with G25C G59A, 0.0791.
As for G25A G82A, the figure is 0.0978; as for G25C C32U, 0.0755; as for G25C C32G, 0.104.
As for G25A G80U, the figure is 0.0923; as for G25A G80A, 0.126; as for G25A G80C, 0.12.
Consider G25A C30A, for which the self-cleavage worked out at 0.126.
With G25A C30G the figure was 0; with C26A G34U, 0.683; with C26A G34C, 0.111.
As for C26A C36A, the figure is 0.143; as for C26A C32U, 0.816; as for C26A C32A, 0.216.
As for C26A C86U, the figure is 0.735; as for C26A C86G, 0.888; as for C26A C86A, 1.13.
Consider G25U A77G, for which the self-cleavage stood at 0.145.
For G25A U79G, the self-cleavage came to 0.
As for G25U G29C, the figure is 0.106; as for G25A A83G, 0.151; as for G25A A83C, 0.146.
With G25U C58A the figure was 0.244.
As for G25C G35C, the figure is 0.115; as for G25A G53U, 0.179.
Regarding G25A U69C, the self-cleavage was 0.302.
As for C26A G52A, the figure is 1.06; as for C26A G52U, 0.798.
For the variant G25U G28C, the self-cleavage was 0.106.
With G25U G28U the figure was 0.0652; with G25U A42U, 0.173; with G25U A42C, 0.135.
As for G25C C48A, the figure is 0.0415.
As for G25C U60A, the figure is 0.256; as for G25C C57U, 0.219.
Consider G25U C36A, for which the self-cleavage was found to be 0.106.
Turning to G25U C36G, the self-cleavage came out at 0.108.
With G25U C30U the figure was 0.102; with G25C U37G, 0.0519; with G25C G55C, 0.106.
With G25U G50U the figure was 0.0361; with G25A U65A, 0.122; with G25A U65G, 0.269.
With G25U C44G the figure was 0.249.
With G25U A83U, the self-cleavage was found to be 0.0791.
As for G25U A83G, the figure is 0.0978.
With G25C U47G the figure was 0.119.
With G25A A78C the figure was 0.0302; with G25A A78U, 0.0346; with C26A A71U, 0.785.
Turning to G25C C84A, the self-cleavage stood at 0.0489.
With G25U A43C the figure was 0.147; with G25U A43G, 0.0573.
With G25U A43U the figure was 0.0707; with G25A G40C, 0.0959; with G25A G40A, 0.317.
As for G25C G29A, the figure is 0.155; as for G25C C85G, 0.125.
G25C C85U: the self-cleavage came to 0.
As for G25C A83C, the figure is 0.0489.
As for G25C A83G, the figure is 0.0302; as for G25A C36U, 0.153.
As for G25U C57U, the figure is 0.227; as for G25A C57G, 0.224.
G25A C57U: the self-cleavage came out at 0.232.
As for G25A C57A, the figure is 0.194; as for G25U A87G, 0.163; as for G25A C49U, 0.318.
As for G25A C49A, the figure is 0.101.
As for G25A C49G, the figure is 0.0755.
For G25U U79G, the self-cleavage turned out to be 0.0426.
As for G25C C61A, the figure is 0.201.
With G25C C61G the figure was 0.175.
With G25C C61U the figure was 0.0354; with C26A A83U, 0.796.
Consider C26A A83C, for which the self-cleavage was determined as 0.752.
As for C26A A83G, the figure is 0.729; as for G25U G68C, 0.0791.
With G25U G68U the figure was 0.225; with G25C, 0.0909.
As for G25U, the figure is 0.177.
Take C26A A56C: the self-cleavage was 1.06.
As for C26A A56G, the figure is 0.957; as for G25A C84U, 0.173; as for G25C A70U, 0.0898.
With G25C A70C the figure was 0.0639; with C26A A87C, 0.944.
With C26A A87G the figure was 0.864; with C26A C84G, 0.95; with C26A C84A, 0.787.
On to C26A C84U, for which the self-cleavage was found to be 0.854.
With G25A G38A the figure was 0.0536.
With G25A A87C the figure was 0.183.
For G25A U47C, the self-cleavage turned out to be 0.107.
With C26A C58U the figure was 0.981.
With C26A G31U, the self-cleavage is 0.425.
With G25A G59C the figure was 0.332; with G25A C86U, 0.248.
Regarding C26A G50U, the self-cleavage came to 0.958.
As for C26A G50C, the figure is 1.16; as for G25C U69A, 0.166; as for G25C U69G, 0.
Consider G25C G50C, for which the self-cleavage turned out to be 0.156.
With C26A C63A the figure was 0.724.
With C26A C63U the figure was 0.869.
G25C G80C: the self-cleavage is 0.17.
As to G25U G52A, the self-cleavage was 0.166.
G25U G52U: the self-cleavage turned out to be 0.234.
With C26A G38C the figure was 0.122; with C26A G38A, 0.153.
In the case of G25C C62A, the self-cleavage was 0.18.
G25C C58U: the self-cleavage is 0.0739.
With G25C C58A the figure was 0.104; with G25A G39C, 0.0332; with G25A G39U, 0.0244.
As for G25C A78C, the figure is 0.0773.
With G25U G55C the figure was 0.228.
As to G25C G73C, the self-cleavage amounted to 0.0773.
As for G25C G73U, the figure is 0.185; as for G25A C64A, 0.115.
As for G25C C66A, the figure is 0.0627; as for G25A C75U, 0.0923; as for G25A C75G, 0.102.
Consider G25A C75A, for which the self-cleavage was 0.166.
As for G25A C85G, the figure is 0.237; as for G25A C85A, 0.237.
With G25A C85U the figure was 0.32; with G25C C63A, 0.0755; with G25C C63U, 0.0739.
With G25U C64G, the self-cleavage is 0.154.
With G25U C64U the figure was 0.113.
As for G25A C63G, the figure is 0.237; as for G25C G34U, 0.
With G25C G34C the figure was 0.0426; with G25A C61U, 0.225.
In the case of G25A C61G, the self-cleavage stood at 0.185.
With G25C A77U the figure was 0; with G25C A77C, 0.104.
With C26A C85G the figure was 1.15; with C26A C85U, 0.942.
Take C26A C85A: the self-cleavage turned out to be 0.997.
Consider G25A U72C, for which the self-cleavage was 0.227.
With G25A U72G the figure was 0.104.
Take G25A C41A: the self-cleavage amounted to 0.212.
With G25A C41G the figure was 0.177; with G25C G81A, 0.
With C26A C64U the figure was 1.13.
Take C26A C64A: the self-cleavage was determined as 1.02.
With G25A C32G the figure was 0.0623.
As for G25U U37C, the figure is 0.17.
With G25U U37G the figure was 0.0489; with G25A A70G, 0.0791.
